Target: canine CD20 with C-terminal FLAG tag, expressed on A20/cCD20/luc or EL-4/cCD20/luc cells (dog) (UniProt Q3C2E2)
Experiment: cell-based or functional assay

Sequence of UniProt Q3C2E2 (Q3C2E2 other isoform, or with tags, fused parts or gaps): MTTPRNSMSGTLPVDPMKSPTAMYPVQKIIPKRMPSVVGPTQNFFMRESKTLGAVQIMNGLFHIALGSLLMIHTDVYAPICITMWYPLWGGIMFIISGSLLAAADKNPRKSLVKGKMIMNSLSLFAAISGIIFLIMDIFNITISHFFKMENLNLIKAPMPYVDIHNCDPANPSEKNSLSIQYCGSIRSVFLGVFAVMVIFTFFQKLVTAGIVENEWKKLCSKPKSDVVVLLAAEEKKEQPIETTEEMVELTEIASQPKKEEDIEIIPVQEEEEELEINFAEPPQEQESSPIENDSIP

With “Dog IgG antibody (Jackson ImmunoResearch Laboratories, Inc.)” the cell-mediated cytotoxicity activity (lysis rate); targets A20/cCD20/luc and EL-4/cCD20/luc, effectors NK-92/cCD16γ, E/T 10:1 was under 25%.

From patent US20240102992A1
